Assay results as given in patent publication US7078174B1, “Screening methods using SOCS box-containing peptides” (The Walter & Eliza Hall Institute of Medical Research, priority 1998, dated 2006).
Entries after “also recorded” stand apart in the source; their conditions may differ. Square brackets hold non-standard residues; d marks the D form. Ends that are not written are not given here. Peptide text beside a SMILES is read from it. * marks the point of attachment. Biotin = O=C1N[C@H]2[C@H](CS[C@H]2CCCCC(=O)*)N1; Nle = CCCC[C@H](N)C(=O)O

Assays:
SOCS-3 protein = assay: IL-6-induced expression of endogenous SOCS-3 protein in J774 cells; type: cell-based; conditions: LLnL 50 μM, 100 ng/ml murine IL-6, 30–180 min
Procedure: Mouse macrophage-like J774 cells were grown continuously in DME containing 10% bovine calf serum. The cells were washed once in PBS, twice with DME and starved for 1 h in DME containing 0.1% w/v low-endotoxin bovine serum albumin (BSA; Sigma). The proteasome inhibitor LLnL dissolved in dimethyl sulfoxide (DMSO) or DMSO was added to the cells for 15 min and the cells then stimulated with 100 ng/ml of murine IL-6 for the indicated times.
Proteins were immunoprecipitated with anti-myc (9E10; WEHI) and protein A-Sepharose or anti-FLAG antibody conjugated to Sepharose (KM5-IC7; WEHI) and separated by sodium dodecyl sulphate-polyacrylamide gel electrophoresis (SDS-PAGE) (Biorad, Hercules, Calif.) under reducing conditions. Proteins were then electrophoretically transferred to PVDF-Plus membranes (Micron Separations Inc. WestBorough, Mass.) and Western blotted as described (8).

elongins B and C [1] = target: T1, elongins B and C (Mus musculus, UniProt P62869+P83940); assay: Affinity purification of SOCS box-binding proteins from M1 cell lysates on GST-SOCS box Sepharose; design: species or system murine; conditions: mass spectrometry and Western blot, not seen with GST control
T1 construct: endogenous in cells; host or cells: M1 murine monocytic leukemic cells
T1 sequence (P83940 whole entry): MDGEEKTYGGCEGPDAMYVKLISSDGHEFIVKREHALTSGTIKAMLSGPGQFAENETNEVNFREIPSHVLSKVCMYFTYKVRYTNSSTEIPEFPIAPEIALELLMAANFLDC
T1 sequence (P62869 whole entry): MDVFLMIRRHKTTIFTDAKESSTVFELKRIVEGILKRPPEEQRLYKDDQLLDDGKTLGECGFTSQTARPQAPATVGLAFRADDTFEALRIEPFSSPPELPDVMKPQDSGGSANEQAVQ
Procedure: DNA fragments encoding the SOCS boxes from mouse SOCS-1 (residues 172–212) and SOCS-3 (residues 186–225) with an N-terminal linker sequence (EGKSSGSGSESKVD) (SEQ ID NO:3) were generated by PCR and cloned into the bacterial expression vector pGEX-2T (9). The GST fusion proteins were purified by affinity chromatography on glutathione Sepharose 4B (Amersham Pharmacia Biotec) and affinity resins were prepared by covalently coupling 1 mg of purified proteins to 1 ml of NHS-activated Sepharose resin (Amersham Pharmacia Biotec). Before use, the affinity resins were washed with elution buffer (0.5% w/v SDS, 50 mM DTT, 50 mM Tris-HCl, pH 8.0 and 150 mM NaCl) and equilibrated in lysis buffer (0.5% w/v Nonidet P-40, 10 mM Tris-HCl, pH 7.5 and 100 mM NaCl).
M1 cells (2×10^10) were lysed on ice for 30 min in 100 ml of lysis buffer supplemented with protease inhibitors (Complete Cocktail tablets; Boehringer Mannheim, Mannheim, Germany), 1 mM PMSF, 1 mM Na3VO4 and 1 mM NaF. The total cell lysate was centrifuged at 15,000 rpm (SS34 rotor) for 15 min at 4° C. and the clarified supernatant pre-incubated with 1 ml of GST-Sepharose resin for 2 h at 4° C. Half the GST-Sepharose-depleted M1 cell lysate was incubated with 1 ml of GST-SOCS-1 SOCS box- and the other half with GST-SOCS-3 SOCS box-Sepharose resin for 2 h at 4° C. […]

elongin C = target: T2, elongin C (Mus musculus, UniProt P83940); assay: Competition of SOCS-1 SOCS box/elongin C interaction in M1 cellular extracts; type: binding, murine; conditions: 80 mM competing non-biotinylated SOCS box peptide, SDS-PAGE, silver staining
T2 construct: endogenous in cells; host or cells: M1 murine monocytic leukemic cells (lysate)
T2 sequence (P83940 whole entry): as the sequence (P83940 whole entry) above
T2 sequence (P62869 whole entry partner): as the sequence (P62869 whole entry) above
Procedure: (§1) Following biotinylation, the peptide was reduced by treatment with 5 mM DTT. Typically, peptide was coupled to streptavidin-agarose resin (Pierce immunopure; 1–2 mg streptavidin/mL resin) by incubating equal volumes of resin and 1 mg/mL peptide for 1 h, followed by extensive washing.
(§2) M1 cells were lysed as previously described, except at a concentration of 10^9 cells/mL of lysis buffer. Streptavidin-agarose binding proteins were precleared from lysate by treating overnight at 4° C. with streptavidin-agarose resin (100 μL of resin/mL lysate). SOCS box peptides (SOCS-1, ASB-2 and WSB-2) were solubilized in water at 10 mg/mL, and aliquots of these, or water alone, were added to 350 μL fractions of cleared lysate, followed by incubation for 3 h at 4° C. These lysates were then added to 30 μL of SOCS-1 SOCS box peptide resin and incubated a further 2 h at 4° C. The resin was extensively washed with lysis buffer and bound proteins were eluted with 20 μL of 4×SDS sample buffer. Proteins were separated by SDS-PAGE on a 4–15% reducing gel.

elongins B and C [2] = target: T1, elongins B and C; assay: Affinity purification from M1 cellular extracts with biotinylated SOCS-1 SOCS box peptide on streptavidin-agarose; type: binding, murine; conditions: streptavidin-agarose bound peptide; mass spectrometry
Procedure: as §1, §2

Compound	elongins B and C in eluates from affinity resin (elongins B and C [1])	competition of elongin C binding to immobilized SOCS-1 SOCS box peptide (elongin C)	further results
CCCC[C@@H](C=O)NC(=O)[C@H](CC(C)C)NC(=O)[C@H](CC(C)C)NC(C)=O [LLnL, N-acetyl-L-leucinyl-L-leucinyl-norleucinal] (Ac-Leu-Leu-[Nle]-aldehyde)	–	–	SOCS-3 protein levels after IL-6 stimulation (SOCS-3 protein): continual increase in SOCS-3 protein levels
GST-SOCS-1 SOCS box: GST fusion protein with SOCS box of mouse SOCS-1 (residues 172–212) and N-terminal linker, coupled to Sepharose (EGKSSGSGSESKVDVRPLQELCRQRIVAAVGRENLARIPLNPVLRDYLSSFPFQI; not fully specified (N-terminus); also: coupled to Sepharose)	both elongins were present in eluates	–	–
GST-SOCS-3 SOCS box: GST fusion protein with SOCS box of mouse SOCS-3 (residues 186–225) and N-terminal linker, coupled to Sepharose (EGKSSGSGSESKVDVATLQHLCRKTVNGHLDSYEKVTQLPGPIREFLDQYDAPL; not fully specified (N-terminus); also: coupled to Sepharose)	both elongins were present in eluates	–	–
SOCS-1 SOCS box peptide: Synthetic peptide fragment of murine SOCS-1 corresponding to the SOCS box and five upstream N-terminal residues (LRQRRVRPLQELCRQRIVAAVGRENLARIPLNPVLRDYLSSFPFQI)	–	competed for this interaction; also recorded: prevented binding of elongin C to immobilized SOCS-1 SOCS box	–
WSB-2 SOCS box peptide: Synthetic peptide fragment of murine WSB-2 corresponding to the SOCS box and five upstream N-terminal residues (TAPRVLSSLKHLCRKALRSFLTTYQVLALPIPKKMKEFLTYRTF)	–	competed for this interaction; also recorded: prevented binding of elongin C to immobilized SOCS-1 SOCS box	–
biotinylated SOCS-1 SOCS box peptide: SOCS-1 SOCS box peptide biotinylated at the amino terminus with sulfosuccinimidobiotin, coupled to streptavidin-agarose (Biotin-LRQRRVRPLQELCRQRIVAAVGRENLARIPLNPVLRDYLSSFPFQI; also: coupled to streptavidin-agarose)	–	–	interacting proteins identified in M1 cellular extracts (elongins B and C [2]): identification by mass spectrometry of elongins B and C as interacting proteins
